According to patent US20040009147A1 (Human Genome Sciences, published 2004):

Target: T1, mouse AIM II (LIGHT), membrane-bound (mouse, UniProt Q9QYH9 1-239)
T1 construct: whole, on cells; On human 293 cells transfected with pmAIM II (flow cytometry); also called mAIM II; pmAIM II-transfected 293 cells
T1 sequence (looked up): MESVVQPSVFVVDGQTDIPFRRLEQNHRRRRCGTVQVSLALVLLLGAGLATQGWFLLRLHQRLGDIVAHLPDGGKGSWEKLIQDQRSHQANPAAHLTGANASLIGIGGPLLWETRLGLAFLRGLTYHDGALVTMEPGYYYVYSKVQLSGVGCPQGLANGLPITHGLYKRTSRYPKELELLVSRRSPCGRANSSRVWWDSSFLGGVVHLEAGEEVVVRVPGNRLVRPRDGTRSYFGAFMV
Experiment: flow cytometry, mouse LTβR-Ig (1 µg in 50 µl) on 293 cells transfected with pmAIM II, FITC goat anti-human IgG
Method: Flow cytometric analysis. Human 293 cells (1×10⁶ cells) were transfected with either mouse AIM II pcDNA3 vector (10μg) or mock vector (10 μg) by calcium phosphate methods. After 30 hr of transfection, 293 cells were harvested and stained with 1 μg of mouse LTβR-Ig or the anti-AIM II antibody in 50 μl of PBS supplemented with 5% FBS and 0.02% azide for 30 min at 4° C. The cells were then washed and further incubated with FITC-conjugated anti-human IgG or anti-rabbit IgG for 30 min at 4° C., respectively. Fluorescence was analyzed by a FACSCalibur flow cytometry (Becton Dickinson, Mountain View, Calif.) with Cell Quest software (Becton Dickinson).

B1: mouse LTβR-Ig fusion protein (mouse LTβR extracellular domain fused to the Fc portion of human IgG1) (Fc fusion, UniProt P50284 31-223, looked up)
chain: QLVPPYRIENQTCWDQDKEYYEPMHDVCCSRCPPGEFVFAVCSRSQDTVCKTCPHNSYNEHWNHLSTCQLCRPCDIVLGFEEVAPCTSDRKAECRCQPGMSCVYLDNECVHCEEERLVLCQPGTEAEVTDEIMDTDVNCVPCKPGHFQNTSSPRARCQPHTRCEIQGLVEAAPGTSYSDTICKNPPEPGAMLL
notes: extracellular domain; Made in BHK/VP16 cells, purified on Protein A; not shown: Fc portion of human IgG1 (vector pX58)
binding result: binds
